Paper PMC10148413, “Caf1 regulates the histone methyltransferase activity of Ash1 by sensing unmodified histone H3” (Epigenetics & Chromatin, 2023)

Legend:
Fly Caf1 wild-type = molecular target: T1, Fly Caf1 wild-type (fly, UniProt Q24572 1-430); test: pull-down; GST-Ash1 fragments held on GST resin; 200 µL of 0.1 mg/mL purified Caf1 added for 1 h; 150 mM NaCl, 50 mM Tris-HCl (8.0); bound proteins analysed by SDS-PAGE; conditions: both partners purified
T1 construct: Caf1 (p55/Nurf55), fly; The same paragraph speaks of 'full-length Caf1' for the AMC co-expression; probably full length here too; also called p55; Nurf55; source: Sf9 cells (baculovirus), purified (Ni-NTA, HiTrap Q HP, Superdex 200); not shown: His6, N-terminal, cleaved
T1 sequence (Q24572 whole entry, the tested form may be a part): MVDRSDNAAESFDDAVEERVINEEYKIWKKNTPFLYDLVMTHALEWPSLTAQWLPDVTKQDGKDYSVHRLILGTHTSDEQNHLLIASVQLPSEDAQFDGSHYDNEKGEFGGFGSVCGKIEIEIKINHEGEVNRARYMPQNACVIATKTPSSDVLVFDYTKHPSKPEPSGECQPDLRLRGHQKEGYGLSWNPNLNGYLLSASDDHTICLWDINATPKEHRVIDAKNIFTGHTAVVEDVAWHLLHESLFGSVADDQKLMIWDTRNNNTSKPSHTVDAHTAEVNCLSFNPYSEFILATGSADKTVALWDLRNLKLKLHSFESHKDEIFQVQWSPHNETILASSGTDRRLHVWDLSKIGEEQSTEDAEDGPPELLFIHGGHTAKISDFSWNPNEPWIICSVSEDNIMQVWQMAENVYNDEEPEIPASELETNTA

[1] = molecular target: T2, Fly Caf1 H3 binding pocket mutant (E235Q/D252K/E279Q) (fly, UniProt Q24572 1-430, E235Q | D252K | E279Q); test: as above; conditions: both partners purified
T2 construct: In the functional row this mutant stood as a subunit of the AMC complex (AMC mut); source: Sf9 cells (baculovirus), purified (Ni-NTA, HiTrap Q HP, Superdex 200); not shown: His6, N-terminal, cleaved
T2 sequence (Q24572 whole entry E235Q/D252K/E279Q): as the sequence (Q24572 whole entry, the tested form may be a part) above, with E235Q, D252K, E279Q counted along it

B1: GST-CBM (Ash1 Caf1 Binding Motif, 1582–1616) (domain or fragment, fly, UniProt Q9VW15 1582-1616, looked up)
chain: AKLQPLSEKEKKLVRQFNTFLVRNFEKIRRCKAKR
notes: Vector pGEX-4T-1; also called Ash1_C1.6; Ash1_CBM
**Q.** Which results are given for B1?
**A.** binding result (Fly Caf1 wild-type): binds; binding result [1]: binds
